Experimental data: US10772928B2, “Modulation and detection of a neuronal alternative splicing regulatory network for treatment and diagnosis of neurological disorders” (The Governing Council of the University of Toronto, priority 2014, dated 2020)
Each block holds one molecule with its values, some of them ahead of it.

Target: T1, nSR100 (Mus musculus, UniProt Q8BKA3)
T1 construct: host or cells: mouse N2A cells
T1 sequence (Q8BKA3 1-608): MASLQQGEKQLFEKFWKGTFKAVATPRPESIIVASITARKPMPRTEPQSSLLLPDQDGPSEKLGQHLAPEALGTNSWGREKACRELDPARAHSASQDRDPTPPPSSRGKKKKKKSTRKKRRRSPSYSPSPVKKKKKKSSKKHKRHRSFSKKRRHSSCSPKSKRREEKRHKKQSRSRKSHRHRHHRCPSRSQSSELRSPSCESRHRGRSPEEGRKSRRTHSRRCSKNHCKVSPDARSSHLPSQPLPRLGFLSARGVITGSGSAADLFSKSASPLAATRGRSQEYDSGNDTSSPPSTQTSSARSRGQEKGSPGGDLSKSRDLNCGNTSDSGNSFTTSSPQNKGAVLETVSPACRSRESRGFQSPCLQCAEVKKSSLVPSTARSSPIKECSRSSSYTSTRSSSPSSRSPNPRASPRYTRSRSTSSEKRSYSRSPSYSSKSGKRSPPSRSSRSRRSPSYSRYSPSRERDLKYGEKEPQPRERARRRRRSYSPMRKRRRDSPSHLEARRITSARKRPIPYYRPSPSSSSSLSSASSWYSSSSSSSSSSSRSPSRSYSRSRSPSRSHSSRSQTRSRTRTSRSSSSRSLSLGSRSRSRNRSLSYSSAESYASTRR
Experiment: AP-MS nSR100 interaction partners from mouse N2A cells (Table 5)
Type: binding
Details: for AvgP (average of the SAINT scores) / MaxP (maximal SAINT score): bait Srrm4; for FoldChange between the prey Avg spectra of the bait and control purifications: bait Srrm4, 0.1 added to prevent division by 0; for AvgSpec (average number of spectra per replicate): bait Srrm4, 2 replicates; for Spectra (number of spectra for the prey in the purification of the bait): AP-MS; for SpecSum: bait Srrm4, sum of spectra over 2 replicates

[1] = bait Srrm4, biological replicate 1 (first number of the cell)
[2] = bait Srrm4, biological replicate 2 (second number of the cell)

Source text: By applying affinity purification coupled to mass-spectrometry (AP-MS), several interaction nSR100 partner proteins were detected that provide insight into mechanisms of post-translational regulation of nSR100 levels.

B3: Cwc27 (protein, UniProt Q3TKY6 2-469, looked up)
Spliceosome-associated …: SNIYIQEPPTNGKVLLKTTAGDIDIELWSKEAPKACRNFIQLCLEAYYDNTIFHRVVPGFIVQGGDPTGTGTGGESIYGAPFKDEFHSRLRFNRRGLVAMANAGPHDNGSQFFFTLGRADELNNKHTIFGKVTGDTVYNMLRLTEVDIDDEERPRNPHRIKSCEVLFNPFDDITPREIKKPKNEKPEEEVKKLKPKGTKNFSLLSFGEEAEEEEEEVNRVSQSMKGRSKSSHDLLKDDPHLSSVPAVESEKDDATGDLEDDGEDDSAERDEYMEDDEKNLMRERIAKRLKKDASASVKSAGDGEKKPASRSEELRKEARQLKRELLAAKQKKETAIKVEEGREEEEAAPDGAVAEYRREKQKYEALRKQQPKKGTSREDQTLALLSQFKSKLTQAITETPENSVPEAEVEDDEGWMSHVLQFEDKTRKVKDASMQDSDTFEIYDPRNPVNKRRREESKKLLREKKERR
- AvgP (average of the SAINT scores): 1
- MaxP (maximal SAINT score): 1
- FoldChange between the prey Avg spectra of the bait and control purifications: 85
- AvgSpec (average number of spectra per replicate): 8.5
- Spectra (number of spectra for the prey in the purification of the bait) [1]: 6
- Spectra (number of spectra for the prey in the purification of the bait) [2]: 11
- SpecSum: 17

B4: Cyfip1 (protein, UniProt Q7TMB8 1-1253, looked up)
Cytoplasmic FMR1-interacting …: MAAQVTLEDALSNVDLLEELPLPDQQPCIEPPPSSLLYQPNFNTNFEDRNAFVTGIARYIEQATVHSSMNEMLEEGQEYAVMLYTWRSCSRAIPQVKCNEQPNRVEIYEKTVEVLEPEVTKLMNFMYFQRNAIERFCGEVRRLCHAERRKDFVSEAYLITLGKFINMFAVLDELKNMKCSVKNDHSAYKRAAQFLRKMADPQSIQESQNLSMFLANHNKITQSLQQQLEVISGYEELLADIVNLCVDYYENRMYLTPSEKHMLLKVMGFGLYLMDGSVSNIYKLDAKKRINLSKIDKYFKQLQVVPLFGDMQIELARYIKTSAHYEENKSRWTCASSSSSPQYNICEQMIQIREDHMRFISELARYSNSEVVTGSGRQEAQKTDAEYRKLFDLALQGLQLLSQWSAHVMEVYSWKLVHPTDKYSNKDCPDNAEEYERATRYNYTTEEKFALVEVIAMIKGLQVLMGRMESVFNHAIRHTVYAALQDFSQVTLREPLRQAIKKKKNVIQSVLQAIRKTVCDWETGHEPFNDPALRGEKDPKSGFDIKVPRRAVGPSSTQLYMVRTMLESLIADKSGSKKTLRSSLEGPTILDIEKFHRESFFYTHLINFSETLQQCCDLSQLWFREFFLELTMGRRIQFPIEMSMPWILTDHILETKEASMMEYVLYSLDLYNDSAHYALTKFNKQFLYDEIEAEVNLCFDQFVYKLADQIFAYYKVMAGSLLLDKRLRSECKNQGATIHLPPSNRYETLLKQRHVQLLGRSIDLNRLITQRVSAAMYKSLELAIGRFESEDLTSVVELDGLLEINRMTHKLLSRYLTLDSFDAMFREANHNVSAPYGRITLHVFWELNYDFLPNYCYNGSTNRFVRTVLPFSQEFQRDKQPNAQPQYLHGSKALNLAYSSIYGSYRNFVGPPHFQVICRLLGYQGIAVVMEELLKVVKSLLQGTILQYVKTLMEVMPKICRLPRHEYGSPGILEFFHHQLKDIVEYAELKTVCFQNLREVGNAVLFCLLIEQSLSLEEVCDLLHAAPFQNILPRIHVKEGERVDAKMKRLESKYAPLHLVPLIERLGTPQQIAIAREGDLLTKERLCCGLSMFEVILTRIRTFLDDPIWRGPLPSNGVMHVDECVEFHRLWSAMQFVYCIPVGTHEFTVEQCFGDGLHWAGCMIIVLLGQQRRFAVLDFCYHLLKVQKHDGKDEIIKNVPLKKMVERIRKFQILNDEIITILDKYLKSGDGESTPVEHVRCFQPPIHQSLASS
- AvgP (average of the SAINT scores): 0.89
- MaxP (maximal SAINT score): 1
- FoldChange between the prey Avg spectra of the bait and control purifications: 5.5
- AvgSpec (average number of spectra per replicate): 11
- Spectra (number of spectra for the prey in the purification of the bait) [1]: 7
- Spectra (number of spectra for the prey in the purification of the bait) [2]: 15
- SpecSum: 22

B6: Ap2a1 (protein, UniProt P17426 1-977, looked up)
AP-2 complex subunit alpha-1: MPAVSKGDGMRGLAVFISDIRNCKSKEAEIKRINKELANIRSKFKGDKALDGYSKKKYVCKLLFIFLLGHDIDFGHMEAVNLLSSNKYTEKQIGYLFISVLVNSNSELIRLINNAIKNDLASRNPTFMCLALHCIANVGSREMGEAFAADIPRILVAGDSMDSVKQSAALCLLRLYKASPDLVPMGEWTARVVHLLNDQHMGVVTAAVSLITCLCKKNPDDFKTCISLAVSRLSRIVSSASTDLQDYTYYFVPAPWLSVKLLRLLQCYPPPEDAAVKGRLVECLETVLNKAQEPPKSKKVQHSNAKNAILFETISLIIHYDSEPNLLVRACNQLGQFLQHRETNLRYLALESMCTLASSEFSHEAVKTHIDTVINALKTERDVSVRQRAADLLYAMCDRSNAKQIVSEMLRYLETADYAIREEIVLKVAILAEKYAVDYSWYVDTILNLIRIAGDYVSEEVWYRVLQIVTNRDDVQGYAAKTVFEALQAPACHENMVKVGGYILGEFGNLIAGDPRSSPPVQFSLLHSKFHLCSVATRALLLSTYIKFINLFPETKATIQGVLRAGSQLRNADVELQQRAVEYLTLSSVASTDVLATVLEEMPPFPERESSILAKLKRKKGPGAASALDDSRRDTSSNDINGGVEPTPSTVSTPSPSADLLGLRAAPPPAAPPAPVGGNLLVDVFSDGPTAQPSLGPTPEEAFLSELEPPAPESPMALLADPAPAADPGPEDIGPPIPEADELLNKFVCKNSGVLFENQLLQIGVKSEFRQNLGRMYLFYGNKTSVQFQNFLPTVVHPGDLQTQLAVQTKRVAAQVDGGAQVQQVLNIECLRDFLTPPLLSVRFRYGGTAQSLTLKLPVTINKFFQPTEMAAQDFFQRWKQLSLPLQEAQKIFKANHPMDAEVTKAKLLGFGSALLDNVDPNPENFVGAGIIQTKALQVGCLLRLEPNAQAQMYRLTLRTSKEPVSRHLCELLAQQF
- AvgP (average of the SAINT scores): 1
- MaxP (maximal SAINT score): 1
- FoldChange between the prey Avg spectra of the bait and control purifications: 7.2
- AvgSpec (average number of spectra per replicate): 54
- Spectra (number of spectra for the prey in the purification of the bait) [1]: 46
- Spectra (number of spectra for the prey in the purification of the bait) [2]: 62
- SpecSum: 108

Continued, values first:

- AvgP (average of the SAINT scores): 0.87
- MaxP (maximal SAINT score): 0.87
- FoldChange between the prey Avg spectra of the bait and control purifications: 3.33
- AvgSpec (average number of spectra per replicate): 10
- Spectra (number of spectra for the prey in the purification of the bait) [1]: 10|10
- Spectra (number of spectra for the prey in the purification of the bait) [2]: 10|10
- SpecSum: 20
B1: Tpi1 (protein, UniProt P17751 2-249, looked up)
Triosephosphate isomerase: APTRKFFVGGNWKMNGRKKCLGELICTLNAANVPAGTEVVCAPPTAYIDFARQKLDPKIAVAAQNCYKVTNGAFTGEISPGMIKDLGATWVVLGHSERRHVFGESDELIGQKVSHALAEGLGVIACIGEKLDEREAGITEKVVFEQTKVIADNVKDWSKVVLAYEPVWAIGTGKTATPQQAQEVHEKLRGWLKSNVNDGVAQSTRIIYGGSVTGATCKELASQPDVDGFLVGGASLKPEFVDIINAKQ

- AvgP (average of the SAINT scores): 1
- MaxP (maximal SAINT score): 1
- FoldChange between the prey Avg spectra of the bait and control purifications: 40
- AvgSpec (average number of spectra per replicate): 4
- Spectra (number of spectra for the prey in the purification of the bait) [1]: 5
- Spectra (number of spectra for the prey in the purification of the bait) [2]: 3
- SpecSum: 8
B2: Tfip11 (protein, UniProt Q9ERA6 1-838, looked up)
Tuftelin-interacting protein …: MSLSHLYRDGEGHLDDDDDDERENFEITDWDLQNEFNPNRQRHWQTKEEATYGVWAERDSDEERPSFGGKRARDYSAPVNFISAGLKKGAAEEADSEDSDAEEKPVKQEDFPKDLGPKKLKTGGNFKPSQKGFSGGTKSFMDFGSWERHTKGIGQKLLQKMGYVPGRGLGKNAQGIINPIEAKQRKGKGAVGAYGSERTTQSLQDFPVADSEEEAEEEFQKELSQWRKDPSGSKKKPKYSYKTVEELKAKGRVSKKLTAPQKELSQVKVIDMTGREQKVYYSYSQISHKHSVPDEGVPLLAQLPPTAGKEARMPGFALPELEHNLQLLIERTEQEIIQSDRQLQYERDMVVSLSHELEKTAEVLAHEERVISNLSKVLALVEECERRMQPHGADPLTLDECARIFETLQDKYYEEYRLADRADLAVAIVYPLVKDYFKDWHPLEDGSYGTQIISKWKSLLENDQLLSHSSQDLSSDAFHRLMWEVWMPFVRNVVAQWQPRNCEPMVDFLDSWAHIIPVWILDNILDQLIFPKLQKEVDNWNPLTDTVPIHSWIHPWLPLMQARLEPLYSPVRSKLSSALQKWHPSDASAKLILQPWKEVLTPGSWEAFMLRNIVPKLGMCLGELVINPHQQHMDAFYWVMDWEGMISVSSLVGLLEKHFFPKWLQVLCSWLSNSPNYEEITKWYLGWKSMFSDQVLAHPSVKDKFNEALDIMNRAVSSNVGAYMQPGARENIAYLTHTERRKDFQYEAMQERREAENMAQRGIGVAASSVPMNFKDLIETKAEEHNIVFMPVIGKRHEGKQLYTFGRIVIYIDRGVVFVQGEKTWVPTSLQSLIDMAK

- AvgP (average of the SAINT scores): 1
- MaxP (maximal SAINT score): 1
- FoldChange between the prey Avg spectra of the bait and control purifications: 5.46
- AvgSpec (average number of spectra per replicate): 65.5
- Spectra (number of spectra for the prey in the purification of the bait) [1]: 65
- Spectra (number of spectra for the prey in the purification of the bait) [2]: 66
- SpecSum: 131
B5: Rbm39 (protein, UniProt Q8VH51 2-530, looked up)
RNA-binding protein 39: ADDIDIEAMLEAPYKKDENKLNSANGHEERSKKRKKSKSRSRSHERKRSKSKERKRSRDRERKKSKSRERKRSRSKERRRSRSRSRDRRFRGRYRSPYSGPKFNSAIRGKIGLPHSIKLSRRRSRSKSPFRKDKSPVREPIDNLTPEERDARTVFCMQLAARIRPRDLEEFFSTVGKVRDVRMISDRNSRRSKGIAYVEFVDVSSVPLAIGLTGQRVLGVPIIVQASQAEKNRAAAMANNLQKGSAGPMRLYVGSLHFNITEDMLRGIFEPFGRIESIQLMMDSETGRSKGYGFITFSDSECAKKALEQLNGFELAGRPMKVGHVTERTDASSASSFLDSDELERTGIDLGTTGRLQLMARLAEGTGLQIPPAAQQALQMSGSLAFGAVAEFSFVIDLQTRLSQQTEASALAAAASVQPLATQCFQLSNMFNPQTEEEVGWDTEIKDDVIEECNKHGGVIHIYVDKNSAQGNVYVKCPSIAAAIAAVNALHGRWFAGKMITAAYVPLPTYHNLFPDSMTATQLLVPSRR
